Drawing on patent US20240076386A1 (Pfizer, published 2024), this text covers binding result and EC50 for one molecule.

The target of assay [1] is T1, human P-selectin expressed on CHO cells (human, UniProt P16109 42-830).
T1 construct: whole, on cells; also called CHO-human P-selectin cells; CHO-P-selectin cells
T1 sequence (looked up): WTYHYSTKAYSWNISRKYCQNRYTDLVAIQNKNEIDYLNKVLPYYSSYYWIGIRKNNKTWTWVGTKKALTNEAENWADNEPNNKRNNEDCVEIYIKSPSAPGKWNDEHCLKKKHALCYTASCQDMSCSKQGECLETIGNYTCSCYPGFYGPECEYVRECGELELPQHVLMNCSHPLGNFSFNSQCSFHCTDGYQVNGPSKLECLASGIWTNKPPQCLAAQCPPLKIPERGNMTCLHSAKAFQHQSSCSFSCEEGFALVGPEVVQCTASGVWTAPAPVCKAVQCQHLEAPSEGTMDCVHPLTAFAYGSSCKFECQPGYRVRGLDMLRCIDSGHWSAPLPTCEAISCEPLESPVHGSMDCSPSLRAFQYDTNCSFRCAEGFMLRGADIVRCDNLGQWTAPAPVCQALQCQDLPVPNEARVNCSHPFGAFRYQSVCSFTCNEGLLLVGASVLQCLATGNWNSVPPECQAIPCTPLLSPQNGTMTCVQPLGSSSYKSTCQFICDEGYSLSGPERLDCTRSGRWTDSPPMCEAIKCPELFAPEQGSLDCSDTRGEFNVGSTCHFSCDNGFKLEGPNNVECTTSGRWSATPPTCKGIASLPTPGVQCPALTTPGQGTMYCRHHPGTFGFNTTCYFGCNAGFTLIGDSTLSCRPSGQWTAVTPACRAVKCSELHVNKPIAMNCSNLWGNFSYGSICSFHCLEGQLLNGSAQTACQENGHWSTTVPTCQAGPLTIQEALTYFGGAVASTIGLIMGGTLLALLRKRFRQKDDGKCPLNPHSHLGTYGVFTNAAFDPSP
The experiment in a line: flow cytometry, CHO human P-selectin cells.

The target of assay [2] is T2, recombinant histidine-tagged human E-selectin (Sino Biologicals; 13025-H08H) (human, UniProt P16581 22-556).
T2 construct: also called recombinant human E-selectin; soluble recombinant human E-selectin
T2 sequence (looked up): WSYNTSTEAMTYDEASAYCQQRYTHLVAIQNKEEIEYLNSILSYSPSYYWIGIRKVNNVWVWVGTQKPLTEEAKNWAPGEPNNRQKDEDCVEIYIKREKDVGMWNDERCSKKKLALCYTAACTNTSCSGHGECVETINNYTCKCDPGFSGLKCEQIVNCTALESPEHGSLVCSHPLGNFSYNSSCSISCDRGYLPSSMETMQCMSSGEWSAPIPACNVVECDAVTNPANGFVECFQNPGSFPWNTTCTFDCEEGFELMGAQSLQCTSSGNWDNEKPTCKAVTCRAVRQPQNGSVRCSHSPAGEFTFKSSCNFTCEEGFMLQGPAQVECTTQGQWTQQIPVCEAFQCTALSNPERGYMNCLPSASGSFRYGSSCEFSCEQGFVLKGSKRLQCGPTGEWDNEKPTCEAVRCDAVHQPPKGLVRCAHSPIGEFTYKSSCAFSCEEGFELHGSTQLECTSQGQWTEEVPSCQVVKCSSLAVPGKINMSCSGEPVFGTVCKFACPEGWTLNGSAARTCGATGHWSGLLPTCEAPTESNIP
As to the kind of experiment: direct binding ELISA, soluble recombinant protein. The protocol:
(§1) Recombinant histidine tagged human P-, E- or L-selectin (Sino Biologicals), mouse E-selectin (Sino Biologicals), rat E-selectin (Sino Biologicals) and Cynomolgus monkey E-selectin (Sino Biologicals) stock solutions were prepared to a final concentration of 1 μg/mL in phosphate buffered saline without calcium and magnesium. Controls included an L-selectin directed antibody (BioLegend; 304811) or P-selectin directed antibody or a negative control IgG. One hundred μL per well of the diluted recombinant selectin proteins were added into a Ni-NTA HisSorb 96 well plate (Qiagen; 35061). Plates were incubated on an orbital shaker at room temperature for 2 hours. Following the incubation, the plates were washed 3 times with 200 μL of wash buffer (50 mM TRIS [trisaminomethane]; 150 mM sodium chloride; 0.05% polysorbate 20, pH 7.4). […] Anti L-selectin and anti-rat-E-selectin antibodies were detected using 1 to 25000 dilution of Peroxidase-conjugated AffiniPure Goat Anti-Mouse IgG (H+L); (Jackson ImnnunoResearch Lab).
(§2) Plates were washed and 100 μL per well of 1-Step Ultra TMB substrate (Thermo Scientific) was added and incubated for 5 minutes at room temperature. Reactions were stopped with 100 μL of 2 M sulfuric acid and absorbance read at 450 nm (Spectramax M5e).

The target in assay [3] is T3, recombinant histidine-tagged cynomolgus monkey E-selectin (Sino Biologicals; 190169-C08H) (cynomolgus monkey, UniProt A0A2K5U7H9 22-554).
T3 construct: also called recombinant cynomolgus monkey E-selectin
T3 sequence: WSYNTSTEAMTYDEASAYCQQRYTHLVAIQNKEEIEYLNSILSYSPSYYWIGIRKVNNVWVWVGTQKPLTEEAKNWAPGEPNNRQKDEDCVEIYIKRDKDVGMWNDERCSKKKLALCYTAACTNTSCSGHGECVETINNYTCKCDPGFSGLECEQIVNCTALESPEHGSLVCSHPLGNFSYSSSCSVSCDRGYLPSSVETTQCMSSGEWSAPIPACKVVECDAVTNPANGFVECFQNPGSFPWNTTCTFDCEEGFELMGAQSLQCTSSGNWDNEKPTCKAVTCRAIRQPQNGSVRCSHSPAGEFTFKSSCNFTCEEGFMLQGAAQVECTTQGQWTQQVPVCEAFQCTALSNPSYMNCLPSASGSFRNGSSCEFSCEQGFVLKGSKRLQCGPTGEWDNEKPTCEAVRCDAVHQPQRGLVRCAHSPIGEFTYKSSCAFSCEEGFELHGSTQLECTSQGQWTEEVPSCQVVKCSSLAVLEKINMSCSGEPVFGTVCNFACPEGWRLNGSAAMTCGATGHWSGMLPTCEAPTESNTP
As to the kind of experiment: direct binding ELISA, soluble recombinant protein. As to the method: as §1, §2
(An ELISA detects its analyte on a solid surface through an enzyme-linked reagent.)

B1: optimized anti-E-selectin antibody 1444 (antibody, human IgG1, kappa, V domains shown)
VH: EVQLVESGGGLVQPGGSLRLSCAASGYAIRSAYMHWVRQAPGKGLEWVARIDPANGNTIYVDSVTGRFTISADNAKNSAYLQMNSLRAEDTAVYYCAMDLYSTSEYWGQGTLVTVSS
VL: DIQMTQSPSSLSASVGDRVTITCKTSQNIERYLNWYQQKPGKAPKLLIYAASSLQSGVPSRFSGSGSGTDFTLTISSLQPEDFATYFCLQDNAWPLTFGQGTKVEIKR
notes: effector-null human IgG1, kappa
Consider B1, for which the binding result in assay [1] was “no binding”. The EC50 – broadly, the midpoint of the concentration-response curve – in assay [2] was in the range of 85 to 120 pM; in assay [3] it was 71 to 93 pM.
